Here are results for two substances from publication PMC7888922.

The assay addresses sACE2_(2).v2.4-IgG1 (human) (UniProt Q9BYF1). As to the kind of experiment: BLI. A general note: In BLI a coated tip is dipped into the sample, and binding shifts an interference pattern.

In the case of “SARS-CoV-2 RBD-N501Y (8his-tagged) (from UniProt P0DTC2 333-529) (domain or fragment)”, the dissociation constant (Kd) (commonly the concentration at which binding is half-saturated) is < 0.1 nM, the off-rate (koff) (usually the first-order rate constant of dissociation) came to 0.00011 s⁻¹ and the kon (commonly the second-order rate constant of association) turned out to be 360000 M⁻¹ s⁻¹.

“SARS-CoV-2 RBD-Y449K (8his-tagged) (from UniProt P0DTC2 333-529) (domain or fragment)” came in with a Kd of 0.9 nM, a dissociation rate constant (koff) of 0.004 s⁻¹ and an on-rate (kon) of 4.3e+06 M⁻¹ s⁻¹.
